Test results from paper PMC3788043 (Journal of the American Society for Mass Spectrometry, 2013).
Where a chain is given by its changes, count along the chain named. Names may count otherwise.

B1: maltose binding protein fusion of UreD (MBP-UreD) (natural protein, Klebsiella aerogenes, UniProt Q09063 1-270, looked up)
chain: MLPPLKKGWQATLDLRFHQAGGKTVLASAQHVGPLTVQRPFYPEEETCHLYLLHPPGGIVGGDELTISAHLAPGCHTLITMPGASKFYRSSGAQALVRQQLTLAPQATLEWLPQDAIFFPGANARLFTTFHLCASSRLLAWDLLCLGRPVIGETFSHGTLSNRLEVWVDNEPLLVERLHLQEGELSSIAERPWVGTLLCYPATDALLDGVRDALAPLGLYAGASLTDRLLTVRFLSDDNLICQRVMRDVWQFLRPHLTGKSPVLPRIWLT
B2: MBP-UreD:UreF (complex, Klebsiella aerogenes)
chain 1: B1 chain
chain 2: MSTAEQRLRLMQLASSNLPVGGYSWSQGLEWAVEAGWVLDVAAFERWQRRQMTEGFFTVDLPLFARLYRACEQGDIAAAQRWTAYLLACRETRELREEERNRGAAFARLLSDWQPDCPPPWRSLCQQSQLAGMAWLGVRWRIALPEMALSLGYSWIESAVMAGVKLVPFGQQAAQQLILRLCDHYAAEMPRALAAPDGDIGSATPLAAIASARHETQYSRLFRS
B3: K165A variant of UreF (natural protein)
chain: B2 chain 2 with K165A

What was measured:
[1] = target: urease apoprotein (UreABC)3 (Klebsiella aerogenes, UniProt P18316 1-100; P18315 1-106; P18314 1-567); assay: native MS
Sequence of urease apoprotein (UreABC)3 (P18316 whole entry, chain 1 of 3): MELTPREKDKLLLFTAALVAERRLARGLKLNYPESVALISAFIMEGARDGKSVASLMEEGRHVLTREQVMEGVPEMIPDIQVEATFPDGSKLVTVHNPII
Sequence of urease apoprotein (UreABC)3 (P18315 whole entry, chain 2 of 3): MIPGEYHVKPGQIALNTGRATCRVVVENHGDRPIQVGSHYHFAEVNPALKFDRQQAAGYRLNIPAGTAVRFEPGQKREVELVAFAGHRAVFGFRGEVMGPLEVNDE
Sequence of urease apoprotein (UreABC)3 (P18314 whole entry, chain 3 of 3): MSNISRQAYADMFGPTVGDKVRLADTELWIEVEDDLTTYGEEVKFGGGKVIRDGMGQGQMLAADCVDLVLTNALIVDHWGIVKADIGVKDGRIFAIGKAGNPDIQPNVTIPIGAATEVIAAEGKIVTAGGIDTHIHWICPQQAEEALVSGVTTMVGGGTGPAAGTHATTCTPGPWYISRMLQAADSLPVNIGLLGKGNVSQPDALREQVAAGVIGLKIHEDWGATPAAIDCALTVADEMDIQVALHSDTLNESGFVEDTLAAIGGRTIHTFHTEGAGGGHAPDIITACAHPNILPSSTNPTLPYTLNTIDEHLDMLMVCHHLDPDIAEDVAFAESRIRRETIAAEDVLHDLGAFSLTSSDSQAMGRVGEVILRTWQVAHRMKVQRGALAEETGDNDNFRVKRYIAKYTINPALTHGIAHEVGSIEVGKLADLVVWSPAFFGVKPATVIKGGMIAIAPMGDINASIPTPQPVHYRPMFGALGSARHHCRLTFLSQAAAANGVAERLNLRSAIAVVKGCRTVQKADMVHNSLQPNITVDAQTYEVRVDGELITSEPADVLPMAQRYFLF

[2] = target: the molecule itself; assay: cross-linking

Row | Binder | binding result [1] | binding result [2]
1 | B1 | binds | 
2 | B2 | binds | 
3 | B3 |  | binds
